Measured values: patent publication US20250066490A1, “ANTI-CD70 ANTIBODIES, CONJUGATES THEREOF AND METHODS OF USING THE SAME” (ProfoundBio US Co., priority 2021, published 2025)
Where a chain is given by its changes, count along the chain named. Blank lines part the entries; values can stand above or below the molecule they belong to.

Experiments:
[1] = Hydrophobic interaction chromatography (HIC); type: physicochemical; settings: full IgG; for Retention time: hydrophobicity by HIC
Experimental: Antibodies were purified from cleared cell culture supernatants using Protein A chromatography (Protein A resin slurry, 4.5 mL, Bogen, Cat #18-0010-02). Briefly, supernatants were prepared for affinity chromatography and loaded onto the columns and allowed to flow completely through the resin. The columns were washed with binding buffer containing 0.15M NaCl and 0.2M PB, PH7.0. Antibody was eluted with elution buffer containing 0.15M NaCl, 0.1M Glycine and 0.2M PB, PH 3.0. Fractions were collected and neutralized by the addition of 1/10 volume of 1M Tris, PH9.0. The fractions were dialyzed for 2 hours against 1×PBS. Purified antibody was quantified by absorbance at A280. Samples from each step of the protein A chromatography were applied onto 12% SDS-PAGE gels for reduced and non-reduced electrophoresis. The hydrophobicity was assessed with hydrophobic interaction chromatography (HIC) on a TSK gel Butyl-NPR, 4.6×100 mm with Butyl-NPR (Tosoh corporation) using a Waters HPLC 2695 system.

CD70 ECD = target: T1, CD70 ECD (Homo sapiens, UniProt P32970); test: Biacore affinity measurement on immobilized CD70 ECD; type: binding; settings: 25° C., CD70 immobilized
T1 sequence (P32970 39-193 limits assumed): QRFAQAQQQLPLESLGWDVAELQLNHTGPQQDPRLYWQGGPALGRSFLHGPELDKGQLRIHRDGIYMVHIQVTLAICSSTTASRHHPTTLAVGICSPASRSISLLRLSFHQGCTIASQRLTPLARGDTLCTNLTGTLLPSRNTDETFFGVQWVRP
Experimental: The immobilization of antigen CD70 ECD was performed at 25° C. with HBS-EP as the running buffer. Sensor chip surface of flow cells 1, 4 were activated by freshly mixed 50 mmol/L N-Hydroxy succinimide (NHS) and 200 mmol/L 1-ethyl-3-(3-dimethylaminopropyl) carbodiimide hydrochloride (EDC) for 420s (10 μL/min). Afterwards, CD70 antigen diluted in 10 mmol/L NaAC (pH 4.5) was injected into flow cell 4 to achieve conjugation of the appropriate Response Unit, while flow cell 1 was set as a blank. After the amine coupling reaction, the remaining active coupling sites on chip surface were blocked by 420s injection of 1 mol/L ethanolamine hydrochloride.
The assay was performed at 25° C. and the running buffer was HBS-EP. Diluted antibodies were injected over the surface of flow cells 1 and 4 during the association phase, followed by injecting running buffer as the dissociation phase. All the data were processed using Biacore T200 Evaluation software version 3.1. Flow cell 1 and a blank injection of buffer in each cycle were used as a double reference for Response Units subtraction. Kinetic data of the interaction between the antibodies and CD70 antigen were obtained through affinity measurement.

[2] = system: cynomolgus CD70 recombinant protein; test: Antibody binding ELISA, cynomolgus CD70; settings: full IgG, FIG. 3
Experimental: The binding specificity of the CD70 antibodies was tested by ELISA according to a standard protocol. Briefly, 96-well micro-plates were coated with 2 μg/ml of human or cynomolgus CD70 recombinant protein in PBS at 100 μl per well and incubated overnight at 4° C. The plates were washed twice with TBS+0.5% Tween20. 200 μL of blocking buffer (2% BSA in PBS) was added to each well, and the plates were incubated at 37° C. for 2 hours. The plates were washed using the wash buffer mentioned above. Serially diluted antibodies were added to the ELISA plates using 100 μl per well, and the plates were incubated for 1 hour at room temperature. Then plates were washed 3 times. HRP conjugated anti-human Fc antibody solution (Sigma, I18885-2ML, diluted with blocking buffer) was added to the plates using 100 μl per well. The plates were incubated at room temperature for 1 hour and then washed 3 times. Then the TMB solution was added to plates using 100 μl per well and the plates were placed at RT for 5-15 mins. Then the stop solution (2M H2SO4) was added using 50 μl per well. The absorbance was measured at A450 and A630.

786-O cells = test: Internalization by FACS immune-fluorescence staining, 786-O; type: cell-based, human; settings: based on the cell binding affinity
Experimental: (§1) Briefly, 2×10^5 cells were harvested from a tissue culture flask by treatment with 0.25% Trypsin/EDTA and then incubated with 10 μg/ml of the lead antibodies or control antibodies in FACS buffer (1×PBS with 0.1% BSA) for 30 mins at 4° C. The cells were washed at 4° C. to remove unbound antibodies and kept on ice or shifted to 37° C. At the set time points (0 h, 4 h, 24 h), cells were incubated with PE-conjugated anti human Fc (Abcam, Ab98596) for 30 mins at 4° C. and then analyzed by flow cytometry. The internalization ratio was calculated by subtracting the 37° C. MFI from the 4° C. MFI, and then compared with 4° C. MFI.
(§2) Four cell lines ([…]), Caki-1, Raji, MCF-7) were utilized in the internalization assay. Target (CD70) copy numbers were determined via the QIFIKIT (DAKO, K0078). Briefly, cells were labeled with a primary mouse monoclonal antibody against CD70. Cells, Set-up beads, Calibration beads (from the kit) were then labeled in parallel with a fluorescein-conjugated anti-mouse secondary antibody. The fluorescence is correlated with the number of bound primary antibody molecules on the cells and on the beads. Samples were subsequently analyzed on the flow cytometer and copy number determined based on the calibration curve (Table 11). For internalization assay, 3×10^5 cells were incubated at 4° C. for 30 min with 10 µg/ml 2E7 in FACS buffer (1×PBS containing 0.1% BSA). Cells were washed at 4° C. to remove unbound material and kept on ice or shifted to 37° C. for different lengths of time. At progressive timepoints ([…], 0.5, 1, 2, 3, 4 hr) cells were stained with PE-conjugated anti-human Fc for 30 min at 4° C. and analyzed by flow cytometry. Internalization rate were calculated by subtracting the mean fluorescence intensity (MFI) of cell surface-bound antibody at 37° C. at each time point from the MFI of cell surface-bound antibody at 4° C. at time 0, then divided by the MFI of the cell surface-bound antibody at 4° C. at time 0.

Caki-1 cells = test: Internalization by FACS immune-fluorescence staining, Caki-1; type: cell-based, human; settings: Caki-1, based on the cell binding affinity
Experimental: as §1, §2

[3] = system: 786-O, Caki-1, U251 and DBTRG-05MG cells; test: Antibody binding by flow cytometry, statements across all four tumor cell lines; parameters: species or system human; settings: four cell lines
Experimental: The lead antibodies were tested for binding to renal carcinoma cells and glioblastoma cells expressing CD70 on the cell surface by flow cytometry. Cell lines 786-O (ATCC® CRL-1932™, provided by COBIOER), Caki-1 (ATCC® HTB-46™, provided by COBIOER), U251 and DBTRG-05MG (ATCC® CRL-2020™, provided by COBIOER) were each tested for antibody binding. 786-O cells were cultured with RPMI 1640 medium (Gibco, Cat #11875093) containing of 10% FBS (Gibco, Cat #10099141) while Caki-1 cells were cultured with McCoy's 5a Modified medium (Gibco, Cat #16600082) containing 10% FBS. U251 cells were cultured with MEM medium containing of 10% FBS and 1% NEAA+1 mM sodium pyruvate. DBTRG-05MG cells were cultured with DMEM medium (Gibco, Cat #C11995500BT) containing of 10% FBS. Each of the lead antibodies and the controls were incubated for 30 mins with the different cell lines (3×10^5 cells per well) in 0.2 ml FACS buffer (1×PBS with 0.1% BSA) at 4° C. Then, the cells were pelleted, washed, and incubated at 4° C. for 30 mins with 100 μl of 1:200 diluted PE-conjugated anti human Fc (Abcam, Ab98596) in FACS buffer. The cells were pelleted again, washed with PBS, resuspended in FACS buffer and analyzed by flow cytometer (Beckman, CytoFLEX).

Rmax (RU) (CD70 ECD): 38.81 RU
ka (CD70 ECD): 25600 M⁻¹ s⁻¹
kd (CD70 ECD): 0.00112 s⁻¹
B1: 1H8: anti-CD70 antibody clone, VH SEQ 5 and VL SEQ 6; scFv and full human IgG1/kappa (antibody, V domains shown)
VH: QVQLQESGPGLVKPSETLSLTCTVSGGSVSSDYYYWSWIRQPPGKGLEWLGYIYYSGSTNYNPSLKSRVTISVDTSKNQFSLKLRSVTTADTAVYYCARGDGDFMGVCFDYWGQGTLVTVSS
VL: EIVLTQSPATLSLSPGERATLSCRASQSVSSYLAWYQQKPGQAPRLLIFDASNRATGIPARFSGSGSGTDFTLTISSLEPEDFAVYYCQQRSNWPLTFGGGTKVEIK
hydrophobicity compared with the parent antibody 69A7 ([1]; HIC): slightly more hydrophobic than the parent antibody 69A7
Retention time [1]: 10.24 min
cross binding activity to the cyno-antigen [2]: better cross binding activity to the cyno-antigen than antibody 69A7
absolute amount of antibody internalized into cell vs parent antibody 69A7 (786-O cells): higher absolute amount of antibody internalized into cell than the parent antibody 69A7
absolute amount of antibody internalized into cell vs parent antibody 69A7 (Caki-1 cells): higher absolute amount of antibody internalized into cell than the parent antibody 69A7
binding ability to the cell lines compared with antibody 69A7 [3]: slightly higher binding ability to the cell lines than that of antibody 69A7

Rmax (RU) (CD70 ECD): 38.83 RU
ka (CD70 ECD): 11700 M⁻¹ s⁻¹
kd (CD70 ECD): 0.00105 s⁻¹
B2: 2D2: anti-CD70 antibody clone, VH SEQ 9 and VL SEQ 10; scFv and full human IgG1/kappa (antibody, V domains shown)
VH: B1 VH with F104Y, M105G, V107N
VL: B1 VL with S92L, N93K, W94F
modifications: left off: another chain or arm of the molecule; large carriers; small tags and cut ends
notes: scFv and full human IgG1/kappa
Retention time [1]: 8.81 min
cross binding activity to the cyno-antigen [2]: better cross binding activity to the cyno-antigen than antibody 69A7
absolute amount of antibody internalized into cell vs parent antibody 69A7 (786-O cells): higher absolute amount of antibody internalized into cell than the parent antibody 69A7
absolute amount of antibody internalized into cell vs parent antibody 69A7 (Caki-1 cells): higher absolute amount of antibody internalized into cell than the parent antibody 69A7
binding ability to the cell lines compared with antibody 69A7 [3]: slightly higher binding ability to the cell lines than that of antibody 69A7
